This assay deals with extracellular domain of hCTLA-4 (Homo sapiens) (UniProt P16410). The assay is described as follows: SPR.

pKd: −log10 of the molar value.

Sequence of UniProt P16410 (P16410 36-161): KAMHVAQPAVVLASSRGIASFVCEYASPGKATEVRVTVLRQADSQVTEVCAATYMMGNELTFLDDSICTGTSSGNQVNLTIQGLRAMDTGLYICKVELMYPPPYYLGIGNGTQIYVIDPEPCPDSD

Consider Ipilimumab (antibody), for which the pKd was 8.43.

For the origin of these results see publication PMC7039627.
